Laboratory results as given in patent US20070207154A1, “METHOD OF MODULATING VASCULARIZATION” (priority 2004, published 2007).

Tested on: sprouting from wild-type, TFΔCT and PAR-2-deficient aortas
Assay: ex vivo angiogenesis assay (aortic ring sprouting in Matrigel)
Format: cell-based, mouse
Details: wild-type and TFΔCT aortas, EGM without serum, day 4; growth factors 20 ng/ml, VIIa 50 nM (FIG. 2c)
Experimental: Angiogenesis assays. The ex vivo angiogenesis assay was adopted from the rat aortic sprouting model described by Masson et al. Biol. Proced. […] Thoracic aortas from 8-11 week old wild-type, TFΔCT, PAR-2-deficient, and TFΔCT/PAR-2-deficient mice of either sex were embedded in Matrigel, and overlaid with EGM supplemented with 5% serum, growth factors, or inhibitors at the following concentrations: VEGF, bFGF, and PDGF: 20 ng/ml; hirudin: 500 nM, VIIai: […], NAPc2: […], NAP5: 1 μM, VIIa: 50 nM. In most cases, the number of aortic sprouts was determined at day 3 and 4 without knowledge of the genotype. Aortic ring RNA was isolated by Trizol (Invitrogen) extraction using standard procedures, digested with DNAaseI, followed by RT-PCR for β-actin and TF. […] Tests used 2 different virus doses, referred to as high (1.1×10^10 virus particles/ml) and low (5×10^9 particles/ml). For confocal fluorescence microscopy, aortic pieces with a minimum of surrounding Matrigel were fixed with 4% paraformaldehyde and methanol, incubated with primary and secondary antibodies (24 hours each), and mounted in anti-fade medium (Vector laboratories). Alternatively, cryosections of OCT-embedded aortas were fixed with acetone and stained as described above.

B1: PDGF-BB: platelet-derived growth factor BB, activates PDGF receptor β (protein, UniProt P01127 82-190, looked up)
Platelet-derived growth …: SLGSLTIAEPAMIAECKTRTEVFEISRRLIDRTNANFLVWPPCVEVQRCSGCCNNRNVQCRPTQVQLRPVQVRKIEIVRKKPIFKKATVTLEDHLACKCETVAAARPVT
modifications: BB homodimer
- sprouting induced by single factor replacing serum: None of these factors promoted substantial sprouting
